Assay results as given in patent publication US20090197801A1.

Target: recombinant erythropoietin receptor (EPOR-Fc)
Assay: SPR; Epo 3 peptide ionically bound to the chip, soluble recombinant EPOR-Fc as analyte; three independent experiments

Sequence of recombinant erythropoietin receptor (EPOR-Fc) (P19235 25-250): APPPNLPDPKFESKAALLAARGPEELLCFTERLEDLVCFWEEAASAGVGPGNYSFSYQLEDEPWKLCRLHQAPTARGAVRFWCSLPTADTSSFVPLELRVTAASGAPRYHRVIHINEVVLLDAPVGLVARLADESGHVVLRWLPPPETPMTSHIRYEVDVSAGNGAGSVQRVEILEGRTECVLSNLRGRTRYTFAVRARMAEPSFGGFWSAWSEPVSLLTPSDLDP

## QLHVDKAVSGLRSLTTLLRA [Epo3 peptide (Epo-peptide 3)]
  Kd: 4.48 nM
